Experimental data published in US20220054588A1, “USE OF SAP FOR THE TREATMENT OF EUROTIOMYCETES FUNGI INFECTIONS” (HUMANITAS MIRASOLE S.P.A., priority 2018, published 2022).

Tested on: A. fumigatus
Test: Inflammatory response in BALFs after i.t. injection of Sap-opsonised conidia
Type: in vivo
Settings: Apcs−/− mice, 16 h
Method: FIG. 5 depicts the rescue of susceptibility to A. fumigatus in SAP-deficient mice. a) b) c) d) i.t. injection of non-opsonised or Sap-opsonised AF conidia. a) survival of wt and Apcs^−/− mice. Wt, n=10; wt+Sap, n=10; Apcs^−/−, n=14; Apcs^−/−+Sap, n=13.****, P<0.0001, wt vs. Apcs^−/− or Apcs^−/− vs. Apcs^−/−+Sap (Mantel-Cox test). b) and c) levels of TNF-α (b) and MPO (c) in BALFs of mice (16 h). b),****, P<0.0001;**, P<0.01. c),***, P<0.0005. d, FACS analysis of neutrophil recruitment in lung (16 h). Mean±SEM.****, P<0.0001;*, P<0.05. b), c), d), Mean±SEM; Mann-Whitney test.
BALFs collection and analysis. BALFs were performed with 1.5 ml PBS, pH 7.4, containing protease inhibitors (Complete tablets, Roche Diagnostic; PMSF, Sigma-Aldrich) and 10 mM EDTA (Sigma-Aldrich) with a 22-gauge venous catheter. BALFs were centrifuged, and supernatants were collected for quantification of total protein content with Bradford's assay (Bio-RAD) and cytokines as described below. After erythrocyte lysis with ACK solution (pH 7.2; NH4Cl 0.15 M, KHCO3 10 mM, EDTA 0.1 mM), cells were resuspended in PBS, pH 7.4, containing 10 mM EDTA and 1% heat-inactivated fetal bovine serum (FCS; Sigma-Aldrich), stained with live and death dye (ThermoFisher Scientific-Molecular Probes) and analysed by BD FACS Canto™ II Flow Cytometer (BD Biosciences) with the following specific antibodies: peridinin chlorophyll protein complex (PerCP)—or brilliant violet (BV) 650-labelled anti-CD45 (#30-F11, IgG2b; 4 μg/ml); FITC- or phycoerythrin (PE)-CF594-labelled anti-Ly6G (#1A8, IgG2a; 4 μg/ml); allophycocyanin (APC)—or BV421-labelled anti-CD11b (#M 1/70, RUO, IgG2b; 1 μg/ml) (all from BD Biosciences).
Proteins. A recombinant murine SAP from mouse myeloma cell line NSO was used (R&D Systems). Native SAP from human serum was purchased by Merck-Millipore. […] Purity of the recombinant protein was assessed by SDS-PAGE followed by silver staining. […] SAP levels were measured in mouse plasma by ELISA (DuoSet ELISA; R&D Systems). Murine TNF-α, CCL2, MPO were measured by ELISA (DuoSet ELISA; R&D Systems). […]

B1: recombinant murine SAP: recombinant murine SAP from mouse myeloma cell line NSO (R&D Systems) (protein, UniProt P12246 21-224, looked up)
Serum amyloid P-component: QTDLKRKVFVFPRESETDHVKLIPHLEKPLQNFTLCFRTYSDLSRSQSLFSYSVKGRDNELLIYKEKVGEYSLYIGQSKVTVRGMEEYLSPVHLCTTWESSSGIVEFWVNGKPWVKKSLQREYTVKAPPSIVLGQEQDNYGGGFQRSQSFVGEFSDLYMWDYVLTPQDILFVYRDSPVNPNILNWQALNYEINGYVVIRPRVWD
normalized: MPO level in BALFs | TNF-α level in BALFs | neutrophil number in BALFs
